Assay results published in patent publication US20160297891A1 (Zymeworks, published 2016).

Columns and labels:
[1] = target: T1, HER2 extracellular domain (soluble analyte in SPR) (human); assay: SPR, standard deviation of KD
[2] = target: T1, HER2 extracellular domain (soluble …); assay: SPR (Biacore T200), variant captured on anti-human Fc, Her2 injected, single cycle kinetics, 25 C
[3] = target: T1, HER2 extracellular domain (soluble …); assay: SPR, the reference itself

B1: v4182, monovalent (one-armed) anti-HER2 antibody with a Fab derived from pertuzumab on chain A (antibody, IgG1)
heavy: EVQLVESGGGLVQPGGSLRLSCAASGFTFTDYTMDWVRQAPGKGLEWVADVNPNSGGSIYNQRFKGRFTLSVDRSKNTLYLQMNSLRAEDTAVYYCARNLGPSFYFDYWGQGTLVTVSSASTKGPSVFPLAPSSKSTSGGTAALGCLVKDYFPEPVTVSWNSGALTSGVHTFPAVLQSSGLYSLSSVVTVPSSSLGTQTYICNVNHKPSNTKVDKKVEPKSCDKTHTCPPCPAPELLGGPSVFLFPPKPKDTLMISRTPEVTCVVVDVSHEDPEVKFNWYVDGVEVHNAKTKPREEQYNSTYRVVSVLTVLHQDWLNGKEYKCKVSNKALPAPIEKTISKAKGQPREPQVYVYPPSRDELTKNQVSLTCLVKGFYPSDIAVEWESNGQPENNYKTTPPVLDSDGSFALVSKLTVDKSRWQQGNVFSCSVMHEALHNHYTQKSLSLSPG
chain: not shown
light: not shown
notes: also called OA-pert
- STEDEV KD [1]: 4.2 nM
- Kd [2]: 14.9 nM
- KD_wt/KD_var [3]: 1 fold
